Data as given in publication PMC8981723.

Target: Human PLA2G1B (phospholipase A2 group 1B), active form (human) (UniProt P04054)

Recombinant HIV-1 gp41 MN protein (gp41 MN (565-771Delta642-725)) (from UniProt P05877 565-771) (domain or fragment)
PLA2G1B enzymatic activity ([3H]AA release from labeled human CD4 T cells), PLA2G1B 63 nM, gp41 0.68 nM-340 nM: > 20 fold
